# Substitutions are numbered along the chain they refer to.
# T1: rhesus CD45 ectodomain (Macaca mulatta, UniProt A0A1D5R142)
# T1 construct: purified human, rhesus or cynomolgus CD45 ectodomain
# T1 sequence (A0A1D5R142 26-581): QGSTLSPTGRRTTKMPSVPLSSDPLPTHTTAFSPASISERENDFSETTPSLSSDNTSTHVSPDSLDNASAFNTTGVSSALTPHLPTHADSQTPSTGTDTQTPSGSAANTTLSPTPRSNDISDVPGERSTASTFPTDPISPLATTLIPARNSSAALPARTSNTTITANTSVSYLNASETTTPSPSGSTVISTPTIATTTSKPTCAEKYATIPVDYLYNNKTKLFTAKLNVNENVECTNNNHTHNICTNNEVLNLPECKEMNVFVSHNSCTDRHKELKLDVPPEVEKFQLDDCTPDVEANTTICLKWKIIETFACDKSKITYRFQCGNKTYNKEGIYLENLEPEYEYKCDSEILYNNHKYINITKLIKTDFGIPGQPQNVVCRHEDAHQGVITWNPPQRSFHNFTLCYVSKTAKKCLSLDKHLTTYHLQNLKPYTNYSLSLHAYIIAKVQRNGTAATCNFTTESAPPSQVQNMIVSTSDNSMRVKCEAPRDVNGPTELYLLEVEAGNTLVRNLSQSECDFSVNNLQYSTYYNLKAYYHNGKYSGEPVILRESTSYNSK
# T2: human CD45 ectodomain (Homo sapiens, UniProt P08575)
# T2 construct: purified human, rhesus or cynomolgus CD45 ectodomain
# T2 sequence (P08575 26-577): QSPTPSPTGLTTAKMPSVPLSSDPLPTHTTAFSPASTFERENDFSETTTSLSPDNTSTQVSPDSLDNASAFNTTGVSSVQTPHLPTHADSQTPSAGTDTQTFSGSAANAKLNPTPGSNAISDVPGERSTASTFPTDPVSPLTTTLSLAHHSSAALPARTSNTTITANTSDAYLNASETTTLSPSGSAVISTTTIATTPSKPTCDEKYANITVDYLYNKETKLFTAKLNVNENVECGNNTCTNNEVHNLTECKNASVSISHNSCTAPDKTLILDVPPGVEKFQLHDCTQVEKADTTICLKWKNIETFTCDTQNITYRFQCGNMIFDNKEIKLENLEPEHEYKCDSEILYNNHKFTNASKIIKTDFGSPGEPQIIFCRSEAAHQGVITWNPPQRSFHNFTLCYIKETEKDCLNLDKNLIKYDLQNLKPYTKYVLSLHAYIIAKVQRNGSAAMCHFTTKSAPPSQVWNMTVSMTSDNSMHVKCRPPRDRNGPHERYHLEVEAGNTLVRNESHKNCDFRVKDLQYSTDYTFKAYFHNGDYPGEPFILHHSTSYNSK
# B1: Ab3: affinity matured human anti-CD45 IgG derived from Ab1; VH SEQ ID NO:21, VL SEQ ID NO:25 (antibody, V domains shown)
# VH: QVQLVESGGGLVKPGGSLRLSCAASGFTFGGYSMNWVRQAPGKGLEWVSYISISGATITYADSVKGRFTISRDNAKNSLYLQMNSLRAEDTAVYYCARGGQYYYDSSDYGEVAFDIWGQGTMVTVSS
# VL: DIVMTQSPLSLPVTPGEPASISCRSSQSLVSNGYNYLDWYLQKPGQSPQLLIYFGSSRASGVPDRFSGSGSGTDFTLKISRVEAEDVGVYYCMQRRRTPPFTFGGGTKVEIK
# B2: Ab7: variant of Ab3 with asparagine to serine substitution in CDR-L1; VH SEQ ID NO:61, VL SEQ ID NO:65 (antibody, V domains shown)
# VH: B1 VH
# VL: B1 VL with N32S
# B3: Ab2: affinity matured human anti-CD45 IgG derived from Ab1; VH SEQ ID NO:11, VL SEQ ID NO:15 (antibody, V domains shown)
# VH: B1 VH with Q1E, K13Q, G30E, G31A, I53L, T59H
# VL: DIVMTQSPLSLPVTPGEPASISCRSSQSLVSNGYNYLDWYLQKPGQSPQLLIYFGSSRASGVPDRFSGSGSGTDFTLKISRVEAEDVGVYYCMQRRRTPWSFGGGTKVEIK
# B4: Ab5: variant of Ab4 with asparagine to serine substitution in CDR-L1; VH SEQ ID NO:41, VL SEQ ID NO:45 (antibody, V domains shown)
# VH: B1 VH with Q1E, K13Q, G30E, G31A, I53L, T59H, D105T
# VL: B3 VL with N32S
# B5: Ab6: affinity matured human anti-CD45 IgG derived from Ab1; VH SEQ ID NO:51, VL SEQ ID NO:55 (antibody, V domains shown)
# VH: B1 VH with Q1E, K13Q, G30E, G31A, I53L, T59H, D105T, M122L
# VL: B3 VL with M4L, N32S
# B6: AbA: humanized and affinity matured variant of parent clone A; VH SEQ ID NO:71, VL SEQ ID NO:75 (antibody, V domains shown)
# VH: EVQLLESGGGLVQPGGSLRLSCAASGFTFNNYWMTWVRQAPGKGLEWVSSISSSGGSIYYPDRVKGRFTISRDNSKNTLYLQMNSLRAEDTAVYYCARDERWAGAMDAWGQGTTVTVSS
# VL: DIQMTQSPSSLSASVGDRVTITCKASQNINKNLDWYQQKPGKAPKLLIYETNNLQTGVPSRFSGSGSGTDFTLTISSLQPEDFATYYCYQHNSRFTFGQGTKLEIK
# B7: AbC: affinity matured variant of parent clone C; VH SEQ ID NO:91, VL SEQ ID NO:95 (antibody, V domains shown)
# VH: EVQLVESGGGLVQPGGSLRLSCAASGFTFNNYWMTWVRQAPGKGLEWVSSISSSGGSIYYPDSVKDRFTISRDNAKNSLYLQMNSLRAEDMAVYYCARLYYYDGGGDAWGQGTLVTVSS
# VL: GIQMTQSPSSLSASVGDRVTITCKASQDINKYLDWYQQKPGKAPKLLIYNTNNLHTGIPSRFSGSGSGTDYTLTISSLQPEDFATYYCLQHISRWTFGGGTKVEIK
# B8: AbB: affinity matured variant of parent clone B; VH SEQ ID NO:81, VL SEQ ID NO:85 (antibody, V domains shown)
# VH: EVQLVESGGGLVQPGGSLRLSCAASGFTFTNFWMAWIRQAPGKGLEWVASISSSGGSIYYPDSVKDRFTISRDNSKNTLYLQMNSLRAEDTAVYYCVKFHHYSGGGDAWGQGTLVTVSS
# VL: B7 VL with G1D, D28N, Y49H, N50Y, I92S
# Molecular target: T1, rhesus CD45 ectodomain
# Assay: Biolayer interferometry (BLI, Octet) binding of immobilized IgG to purified CD45 ectodomain
# Conditions: Table 2, Rhesus CD45
# Protocol: (§1) Antibody binding studies were performed at 25° C. in 1×PBS supplemented with 0.1% w/v bovine serum albumin with a Pall ForteBio Octet Red96 using biolayer interferometry (BLI).
# The apparent monovalent affinity (KD), apparent association rate (KON), and apparent dissociation rate (KOFF) were determined by local full fitting with a 1:1 binding model as calculated by ForteBio data analysis software version 10 of each IgG to purified human, cynomolgus or rhesus CD45 ectodomain. […] Binding was confirmed using […]
Molecule,Kdis,Kon
B1,0.000222 s⁻¹,135000 M⁻¹ s⁻¹
B2,0.000544 s⁻¹,124000 M⁻¹ s⁻¹
B3,0.000192 s⁻¹,135000 M⁻¹ s⁻¹
B4,0.000193 s⁻¹,113000 M⁻¹ s⁻¹
B5,0.000175 s⁻¹,122000 M⁻¹ s⁻¹

# Same assay, conditions: Table 2, Rhesus CD45; 50 nM antigen (Ab1: 300 nM)
row,Molecule,Kd
1,B1,1.65 nM
2,B2,4.39 nM
3,B3,1.42 nM
4,B4,1.71 nM
5,B5,1.44 nM

# System: cynomolgus CD45 ectodomain
# Sequence (as listed by the source): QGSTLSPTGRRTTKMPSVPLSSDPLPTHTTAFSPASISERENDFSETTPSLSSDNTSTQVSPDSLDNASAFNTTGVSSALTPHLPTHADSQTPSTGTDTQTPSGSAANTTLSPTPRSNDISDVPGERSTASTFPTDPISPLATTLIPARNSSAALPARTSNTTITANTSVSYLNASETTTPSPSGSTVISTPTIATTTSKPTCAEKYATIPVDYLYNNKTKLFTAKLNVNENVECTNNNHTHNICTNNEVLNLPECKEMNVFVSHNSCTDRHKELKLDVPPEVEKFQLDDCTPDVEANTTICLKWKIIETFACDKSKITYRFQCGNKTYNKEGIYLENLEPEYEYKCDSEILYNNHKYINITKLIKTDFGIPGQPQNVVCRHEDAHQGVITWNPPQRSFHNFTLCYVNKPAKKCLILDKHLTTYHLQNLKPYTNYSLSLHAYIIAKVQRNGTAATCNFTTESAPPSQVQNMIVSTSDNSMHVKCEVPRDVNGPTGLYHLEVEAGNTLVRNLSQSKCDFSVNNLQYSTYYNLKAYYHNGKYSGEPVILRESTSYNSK
# Assay: as above
# Conditions: Table 2, Cynomolgus CD45
# Protocol: as §1
# (§2) The apparent monovalent affinity (KD), apparent association rate (KON), and apparent dissociation rate (KOFF) were determined by local full fitting with a 1:1 binding model as calculated by ForteBio data analysis software version 10 of each IgG to purified human, cynomolgus or rhesus CD45 ectodomain. […] Binding was confirmed using
# Briefly, antibody binding studies were performed at 25° C. in 1×PBS supplemented with 0.1% w/v bovine serum albumin with a PALL FORTEBIO OCTET RED96 using biolayer interferometry (BLI). […]
# (§3) The apparent monovalent affinity (KD), apparent association rate (KON), and apparent dissociation rate (KDIS or KOFF) were determined by local full fitting with a 1:1 binding model as calculated by FORTEBIO data analysis software version 10. […] Each of the selected humanized antibodies AbA, AbB, and AbC was able to cross react with human and cynomolgus CD45.
Molecule,Kdis,Kon
B1,0.000192 s⁻¹,120000 M⁻¹ s⁻¹
B2,0.000537 s⁻¹,127000 M⁻¹ s⁻¹
B3,0.000129 s⁻¹,119000 M⁻¹ s⁻¹
B4,0.000164 s⁻¹,117000 M⁻¹ s⁻¹
B5,0.000154 s⁻¹,118000 M⁻¹ s⁻¹

# Same assay, conditions: Table 2, Cynomolgus CD45; 50 nM antigen (Ab1: 300 nM)
row,Molecule,Kd
1,B1,1.61 nM
2,B2,4.24 nM
3,B3,1.08 nM
4,B5,1.3 nM

# Same assay, conditions: Table 11, Cyno CD45
Molecule,KON,Kdis
B6,9440 M⁻¹ s⁻¹,0.000322 s⁻¹
B7,11100 M⁻¹ s⁻¹,0.000282 s⁻¹
B8,8160 M⁻¹ s⁻¹,0.00042 s⁻¹

# Same assay, conditions: Table 11, Cyno CD45; 300 nM antigen
row,Molecule,Kd
1,B6,34.1 nM
2,B7,25.3 nM
3,B8,51.5 nM

# Molecular target: T2, human CD45 ectodomain
# Assay: as above
# Conditions: BLI / Octet
# Protocol: as §1, §2
# Briefly, antibody binding studies were performed at 25° C. in 1×PBS supplemented with 0.1% w/v bovine serum albumin with a PALL FORTEBIO OCTET RED96 using biolayer interferometry (BLI). Each purified antibody was immobilized onto anti-human Fc biosensors (AHQ; PALL FORTEBIO 18-5001) and incubated with 100 nM of purified human or 300 nM of cynomolgus CD45 ectodomain.
# as §3
row,Molecule,CD45 binding compared with parent (qualitative)
1,B2,did not alter CD45 binding
2,B4,did not alter CD45 binding

# Same assay, conditions: Table 2, Human CD45
Molecule,Kdis,Kon
B1,0.000225 s⁻¹,260000 M⁻¹ s⁻¹
B2,0.000615 s⁻¹,264000 M⁻¹ s⁻¹
B3,2.8e-05 s⁻¹,245000 M⁻¹ s⁻¹
B4,3.36e-05 s⁻¹,233000 M⁻¹ s⁻¹
B5,1.73e-05 s⁻¹,242000 M⁻¹ s⁻¹

# Same assay, conditions: Table 11, Human CD45
Molecule,KON,Kdis
B6,50300 M⁻¹ s⁻¹,0.000181 s⁻¹
B7,50800 M⁻¹ s⁻¹,0.000149 s⁻¹
B8,43800 M⁻¹ s⁻¹,0.000239 s⁻¹

# Same assay, conditions: text b859
row,Molecule,improved affinity over the parent clone
1,B7,greater than 4 fold

# System: not listed separately
# Assay: Two-week thermal / pH stress stability by HIC and peptide mapping
# Format: physicochemical
# Conditions: 4° C., 25° C., 40° C. for 15 days; high pH treatment
# Protocol: A two-week stability assay was performed by incubating Ab3 and Ab4 at 4° C., 25° C., and 40° C. for 15 days, after which the antibodies were analyzed by […] (HIC). Briefly, 25 micrograms of the indicated antibody were injected onto a Tosoh TSKgel Phenyl-5PW 7.5 mm ID×7.5 cm 10-micron column (Catalog #07573) on a Waters ARC HPLC/UPLC system. […] This hydrophilic pre-peak was indicative of a potential site of post-translational modification (e.g., oxidation or deamidation). Peptide mapping was subsequently performed to identify which amino acids were modified in each antibody upon exposure to stress (high pH, low pH, and oxidative stress). The peptide mapping analysis identified a potential site of deamidation at an asparagine in CDR-L1 (N30 position) in response to high pH conditions (e.g., pH 8 or greater).
# Accordingly, variants of Ab3 and Ab4 were generated in which the asparagine in CDR-L1 (e.g., at position 30B) was substituted with a serine. The resulting antibodies were named Ab7 and Ab5 respectively.
row,Molecule,HIC hydrophilic pre-peak (deamidated species)
1,B1,hydrophilic pre-peak that increased as a function of thermal stress
